Columns and labels:
[1] = target: T1, Influenza A group 1 HA Foldon.6×His (Influenza A virus (H1N1)); experiment: SPR (Biacore 8k), 25C; HA Foldon-6xHis captured via anti-His, bsAb injected
T1 construct: also called HA-6×His; HA.6×His

[2] = target: T1, Influenza A group 1 HA Foldon.6×His; experiment: SPR (Biacore 8k), 37C; HA Foldon-6xHis captured via anti-His, bsAb injected

B1: REGN6093, anti-Influenza HA x anti-C1q bispecific antibody (bispecific antibody, V domains shown)
VH 1: QVHLVQSGPEVKKPGSSVKVSCKASGVTFISHAISWVRQAPGQGLEWVGGIIAIFGTTNYAQKFQGRVTVTTDKSTNTVYMELSRLRSEDTAIYYCARGETYYEGNFDFWGQGTLVTVSS
VH 2: EVQLVESGGGVVQPGGSLRLSCAASGFSLDDYAMHWVRQTPGKGLEWVSLISGDGSRTSYADSVKGRFTISRDNSKNSLYLKMNSLRTEDTALYYCTKDPHNSNWFDPWGQGTLVTVSS
VL: not shown
notes: also called FluA group 1 x C1q bispecific; anti-HA x anti-C1q
With B1 the Kd [1] was 1110 pM, the koff [1] was 0.000175 s⁻¹ and the kon [1] was 158000 M⁻¹ s⁻¹. For the same binder, the t1/2 [1] was 1.1 h, the Kd [2] was 519 pM and the koff [2] was 5.15e-05 s⁻¹. It also gave a kon [2] of 99400 M⁻¹ s⁻¹ and a t½ [2] of 3.74 h.

Source: patent US20220153819A1 (Regeneron, published 2022)
